In the supplement of paper PMC10065799, “High-throughput profiling of sequence recognition by tyrosine kinases and SH2 domains using bacterial peptide display” (eLife, 2023):

Key:
[1] = target: EPHB2 (UniProt P29323); assay: phosphorylation enrichment, bacterial display (enrichment ratio); higher = better substrate or ligand; peptides without Tyr show the background
[2] = system: Fer (mouse); assay: as above
[3] = target: EPHB1 (UniProt P54762); assay: as above
[4] = target: Fes (UniProt P07332); assay: as above
Fes, sequence (P07332 whole entry, looked up): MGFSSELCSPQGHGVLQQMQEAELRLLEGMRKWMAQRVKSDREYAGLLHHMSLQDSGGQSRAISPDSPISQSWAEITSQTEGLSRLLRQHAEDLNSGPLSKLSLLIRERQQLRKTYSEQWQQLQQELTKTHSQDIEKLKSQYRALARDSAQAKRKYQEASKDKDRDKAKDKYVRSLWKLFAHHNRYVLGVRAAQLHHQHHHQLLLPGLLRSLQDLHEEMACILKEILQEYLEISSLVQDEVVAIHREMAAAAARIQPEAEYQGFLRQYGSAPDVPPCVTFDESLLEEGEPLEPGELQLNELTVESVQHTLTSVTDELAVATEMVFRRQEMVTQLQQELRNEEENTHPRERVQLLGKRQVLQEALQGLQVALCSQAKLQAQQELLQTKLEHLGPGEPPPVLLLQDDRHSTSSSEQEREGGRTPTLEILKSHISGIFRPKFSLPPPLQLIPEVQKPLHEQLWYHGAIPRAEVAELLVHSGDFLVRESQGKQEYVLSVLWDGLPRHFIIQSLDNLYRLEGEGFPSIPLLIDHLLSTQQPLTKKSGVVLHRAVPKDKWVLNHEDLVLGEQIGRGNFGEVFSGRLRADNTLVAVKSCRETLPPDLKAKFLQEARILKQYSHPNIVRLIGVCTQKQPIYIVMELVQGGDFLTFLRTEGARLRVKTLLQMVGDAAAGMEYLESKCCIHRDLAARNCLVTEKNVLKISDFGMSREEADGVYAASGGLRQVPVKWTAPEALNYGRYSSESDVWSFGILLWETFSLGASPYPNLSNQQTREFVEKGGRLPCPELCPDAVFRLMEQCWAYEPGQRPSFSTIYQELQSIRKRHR

[5] = target: Fyn (UniProt P06241); assay: as above
Fyn, sequence (P06241 whole entry, looked up): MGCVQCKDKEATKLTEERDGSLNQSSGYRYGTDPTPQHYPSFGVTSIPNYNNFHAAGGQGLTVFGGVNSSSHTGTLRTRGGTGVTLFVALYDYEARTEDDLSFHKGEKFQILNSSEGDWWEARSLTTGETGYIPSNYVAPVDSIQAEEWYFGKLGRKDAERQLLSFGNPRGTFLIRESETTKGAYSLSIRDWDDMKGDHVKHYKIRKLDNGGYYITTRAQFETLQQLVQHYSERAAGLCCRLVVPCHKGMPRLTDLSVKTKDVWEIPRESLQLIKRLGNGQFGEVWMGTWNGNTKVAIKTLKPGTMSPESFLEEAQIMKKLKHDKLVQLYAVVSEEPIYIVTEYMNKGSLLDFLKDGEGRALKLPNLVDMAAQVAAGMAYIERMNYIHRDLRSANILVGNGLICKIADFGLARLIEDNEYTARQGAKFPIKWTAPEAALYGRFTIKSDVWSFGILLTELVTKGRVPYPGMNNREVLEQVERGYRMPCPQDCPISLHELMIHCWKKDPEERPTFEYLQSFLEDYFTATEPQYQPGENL

[6] = target: Jak2 (UniProt O60674); assay: as above
Jak2, sequence (O60674 whole entry, looked up): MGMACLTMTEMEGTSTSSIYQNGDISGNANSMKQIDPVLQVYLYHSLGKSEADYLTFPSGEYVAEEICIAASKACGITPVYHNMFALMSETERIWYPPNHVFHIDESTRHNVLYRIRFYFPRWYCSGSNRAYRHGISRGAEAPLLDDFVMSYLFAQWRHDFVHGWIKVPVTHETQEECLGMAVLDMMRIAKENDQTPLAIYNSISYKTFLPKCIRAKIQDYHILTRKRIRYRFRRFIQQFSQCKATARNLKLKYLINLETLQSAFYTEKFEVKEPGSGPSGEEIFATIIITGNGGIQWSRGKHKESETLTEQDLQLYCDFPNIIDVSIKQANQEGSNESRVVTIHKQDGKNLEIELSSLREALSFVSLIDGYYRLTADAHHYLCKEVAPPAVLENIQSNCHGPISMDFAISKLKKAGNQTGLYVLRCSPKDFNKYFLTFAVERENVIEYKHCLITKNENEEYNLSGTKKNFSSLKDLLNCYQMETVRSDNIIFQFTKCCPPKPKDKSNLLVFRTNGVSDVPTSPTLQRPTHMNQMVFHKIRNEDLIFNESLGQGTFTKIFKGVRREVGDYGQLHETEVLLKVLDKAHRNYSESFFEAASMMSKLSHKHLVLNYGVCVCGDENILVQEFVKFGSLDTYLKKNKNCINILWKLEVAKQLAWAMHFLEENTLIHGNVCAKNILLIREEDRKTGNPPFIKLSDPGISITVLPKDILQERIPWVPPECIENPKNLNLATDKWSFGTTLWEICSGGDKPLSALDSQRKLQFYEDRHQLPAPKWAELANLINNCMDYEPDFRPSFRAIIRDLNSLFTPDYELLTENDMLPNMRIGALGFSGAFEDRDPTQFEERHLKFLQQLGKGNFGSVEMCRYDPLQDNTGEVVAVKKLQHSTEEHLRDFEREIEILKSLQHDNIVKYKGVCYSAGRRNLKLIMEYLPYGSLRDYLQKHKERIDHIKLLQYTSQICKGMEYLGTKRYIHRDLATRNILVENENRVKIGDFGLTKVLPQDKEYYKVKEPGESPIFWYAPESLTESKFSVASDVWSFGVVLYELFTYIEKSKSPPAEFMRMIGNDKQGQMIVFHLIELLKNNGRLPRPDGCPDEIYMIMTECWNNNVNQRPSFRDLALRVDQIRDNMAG

[7] = system: AncSZ; assay: as above
[8] = target: MERTK (UniProt Q12866); assay: as above
[9] = target: FGFR3 (UniProt P22607); assay: as above
FGFR3, sequence (P22607 whole entry, looked up): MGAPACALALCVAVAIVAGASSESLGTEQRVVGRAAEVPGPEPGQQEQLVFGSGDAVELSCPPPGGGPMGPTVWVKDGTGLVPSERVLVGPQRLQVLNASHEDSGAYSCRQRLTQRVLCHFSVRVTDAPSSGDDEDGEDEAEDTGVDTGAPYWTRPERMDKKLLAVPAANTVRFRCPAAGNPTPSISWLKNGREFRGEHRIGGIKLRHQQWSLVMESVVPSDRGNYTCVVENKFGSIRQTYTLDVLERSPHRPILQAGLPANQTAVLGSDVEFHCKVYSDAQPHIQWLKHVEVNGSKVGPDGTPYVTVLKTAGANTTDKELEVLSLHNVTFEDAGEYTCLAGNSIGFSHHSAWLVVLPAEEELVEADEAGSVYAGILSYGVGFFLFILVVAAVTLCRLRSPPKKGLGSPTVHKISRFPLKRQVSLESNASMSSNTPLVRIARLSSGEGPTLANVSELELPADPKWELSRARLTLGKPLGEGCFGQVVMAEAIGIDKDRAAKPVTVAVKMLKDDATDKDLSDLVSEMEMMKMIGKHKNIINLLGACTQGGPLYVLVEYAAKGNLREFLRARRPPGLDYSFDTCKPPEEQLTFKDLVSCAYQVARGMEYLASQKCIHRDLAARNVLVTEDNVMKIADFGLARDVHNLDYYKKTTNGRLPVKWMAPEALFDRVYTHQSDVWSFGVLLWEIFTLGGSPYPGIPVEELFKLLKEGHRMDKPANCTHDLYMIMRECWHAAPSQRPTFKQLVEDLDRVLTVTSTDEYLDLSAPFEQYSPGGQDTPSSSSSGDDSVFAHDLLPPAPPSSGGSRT

[10] = system: c-Abl (mouse); assay: as above
[11] = target: FGFR1 (UniProt P11362); assay: as above
[12] = target: Hck (UniProt P08631); assay: as above
Hck, sequence (P08631 whole entry, looked up): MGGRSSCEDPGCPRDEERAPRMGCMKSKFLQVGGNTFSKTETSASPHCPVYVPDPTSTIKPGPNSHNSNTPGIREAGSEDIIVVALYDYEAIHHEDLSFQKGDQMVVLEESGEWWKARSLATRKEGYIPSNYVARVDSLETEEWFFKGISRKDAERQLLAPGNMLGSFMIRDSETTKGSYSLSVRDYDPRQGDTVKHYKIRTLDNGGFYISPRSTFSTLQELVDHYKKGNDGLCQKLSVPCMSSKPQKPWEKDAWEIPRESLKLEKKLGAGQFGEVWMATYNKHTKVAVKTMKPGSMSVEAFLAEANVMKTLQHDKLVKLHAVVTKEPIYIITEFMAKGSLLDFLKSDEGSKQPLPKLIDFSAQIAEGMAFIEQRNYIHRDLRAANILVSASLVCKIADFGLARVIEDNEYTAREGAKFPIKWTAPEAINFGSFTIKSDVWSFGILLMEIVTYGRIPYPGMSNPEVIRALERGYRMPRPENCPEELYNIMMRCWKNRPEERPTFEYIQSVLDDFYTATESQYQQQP

[13] = system: c-Src; assay: as above
[14] = target: SHP2-C SH2; assay: SH2 binding enrichment of the phosphorylated peptide, bacterial display (enrichment ratio); higher = better substrate or ligand; peptides without Tyr show the background
[15] = target: c-Src SH2; assay: as above
[16] = target: Grb2 SH2 (UniProt P62993); assay: as above
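For SH2 binding enrichment of the phosphorylated peptide, bacterial display in this document: peptide library displayed on the E. coli surface as eCPX fusions, selected cells deep-sequenced, score is each peptide's frequency after selection divided by its frequency in the input.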
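For phosphorylation enrichment, bacterial display in this document: 11-residue human phosphosite peptides and single-mutation variants displayed on the E. coli surface, counted by deep sequencing, each peptide's frequency after selection divided by its frequency in the unselected input library; frequency after pTyr selection over input frequency; kinase dosed for 20-30% of maximal phosphorylation in three min.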

EPHB1, sequence (P54762 whole entry, looked up): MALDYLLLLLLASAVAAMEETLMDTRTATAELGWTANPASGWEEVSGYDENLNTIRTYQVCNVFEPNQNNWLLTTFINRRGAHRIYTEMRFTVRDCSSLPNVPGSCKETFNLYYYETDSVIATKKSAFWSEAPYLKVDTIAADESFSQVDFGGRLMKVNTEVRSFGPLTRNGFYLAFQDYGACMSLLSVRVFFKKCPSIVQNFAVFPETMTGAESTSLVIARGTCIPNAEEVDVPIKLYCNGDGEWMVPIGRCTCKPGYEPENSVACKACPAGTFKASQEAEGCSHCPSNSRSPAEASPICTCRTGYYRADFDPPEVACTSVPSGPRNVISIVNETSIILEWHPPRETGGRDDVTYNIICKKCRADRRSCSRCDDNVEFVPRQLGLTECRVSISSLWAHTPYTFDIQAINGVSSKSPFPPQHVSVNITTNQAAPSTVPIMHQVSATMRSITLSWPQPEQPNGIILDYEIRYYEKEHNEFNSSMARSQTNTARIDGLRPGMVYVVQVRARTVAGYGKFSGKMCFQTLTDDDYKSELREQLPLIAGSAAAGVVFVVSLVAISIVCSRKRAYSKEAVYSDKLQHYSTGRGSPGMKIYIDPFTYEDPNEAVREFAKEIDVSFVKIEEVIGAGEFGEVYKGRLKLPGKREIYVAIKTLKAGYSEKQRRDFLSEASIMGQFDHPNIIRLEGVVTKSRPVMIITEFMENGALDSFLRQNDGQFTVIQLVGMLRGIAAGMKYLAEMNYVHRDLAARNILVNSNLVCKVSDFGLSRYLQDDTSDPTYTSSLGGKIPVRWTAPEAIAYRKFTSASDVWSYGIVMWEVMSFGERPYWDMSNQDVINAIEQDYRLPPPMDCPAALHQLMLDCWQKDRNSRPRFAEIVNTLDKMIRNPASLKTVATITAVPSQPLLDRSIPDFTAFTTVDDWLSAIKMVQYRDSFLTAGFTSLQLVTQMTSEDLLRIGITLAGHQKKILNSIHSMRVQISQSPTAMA

| Sequence | SH2 binding enrichment [14] | SH2 binding enrichment [15] | SH2 binding enrichment [16] | phosphorylation enrichment [1] | phosphorylation enrichment [2] | phosphorylation enrichment [3] | phosphorylation enrichment [4] | phosphorylation enrichment [5] | phosphorylation enrichment [6] | phosphorylation enrichment [7] | phosphorylation enrichment [8] | phosphorylation enrichment [9] | phosphorylation enrichment [10] | phosphorylation enrichment [11] | phosphorylation enrichment [12] | phosphorylation enrichment [13] |
| --- | --- | --- | --- | --- | --- | --- | --- | --- | --- | --- | --- | --- | --- | --- | --- | --- |
| AARVSYRLASG [DCHS1_Y1582] | 0.759 | 0.409 | 0.842 | 0.49 | 0.51 | 0.352 | 0.588 | 0.315 | 0.428 | 0.554 | 0.422 | 0.392 | 0.423 | 0.354 | 0.378 | 0.382 |
| ADEEFYEIIAA [FEStide_F_2014] | 0.605 | 0.729 | 0.917 | 0.77 | 7.22 | 0.886 | 1.57 | 2.42 | 1.09 | 2.54 | 2.19 | 1.4 | 0.853 | 1.5 | 3.26 | 3.36 |
| ADGLEYSRTEL [MMUT_Y287_G291E] | 0.596 | 0.447 | 0.717 | 0.572 | 0.56 | 0.483 | 0.873 | 0.527 | 0.747 | 1.03 | 0.437 | 0.637 | 0.621 | 0.552 | 0.547 | 0.461 |
| ADGLEYSRTGL [MMUT_Y287] | 0.606 | 0.373 | 0.758 | 1.6 | 0.514 | 0.555 | 0.978 | 0.544 | 0.855 | 0.99 | 0.592 | 0.559 | 0.878 | 0.602 | 0.776 | 0.641 |
| ADMETYLLEKS [MYH7_Y266_I263M] | 0.564 | 0.523 | 0.67 | 0.581 | 0.454 | 0.612 | 1.11 | 0.573 | 0.983 | 0.949 | 0.447 | 0.582 | 0.864 | 0.573 | 0.549 | 0.869 |
| AEEKEYHAEEG [EGFR_Y869_G873E] | 0.746 | 0.552 | 0.994 | 0.815 | 0.494 | 0.649 | 1.15 | 0.633 | 1.01 | 1.29 | 0.445 | 0.747 | 0.84 | 0.605 | 0.573 | 0.451 |
| AEQEEYSAMRD [NRAS_Y64_G60E] | 0.785 | 0.456 | 1.01 | 0.566 | 0.469 | 0.541 | 1.26 | 0.458 | 1.14 | 1.4 | 0.478 | 0.737 | 0.802 | 0.525 | 0.571 | 0.536 |
| AGADGYDFLAP [FOXL2_Y186_G187D_YF] | 0.661 | 5.67 | 0.883 | 0.645 | 0.598 | 0.554 | 1.17 | 0.452 | 1.03 | 0.984 | 0.708 | 0.744 | 0.785 | 0.543 | 0.79 | 0.555 |
| AKAEICEMRPL [COX10_Y97_Y97C] | 0.798 | 0.679 | 1.01 | 0.516 | 0.602 | 0.469 | 0.921 | 0.389 | 0.716 | 0.709 | 0.437 | 0.477 | 0.738 | 0.593 | 0.608 | 0.533 |
| AKFPSYEKNKK [FOXL2_Y91_F90S] | 0.894 | 0.615 | 0.907 | 0.396 | 0.49 | 0.577 | 0.7 | 0.423 | 1.07 | 0.624 | 0.499 | 0.475 | 0.544 | 0.618 | 0.44 | 0.562 |
| AKIDGYIISYR | 1.03 | 0.685 | 0.961 | 0.657 | 0.566 | 0.678 | 1.39 | 0.37 | 0.966 | 1.15 | 0.46 | 0.684 | 0.755 | 0.607 | 0.604 | 0.568 |

Second part, led by results:

| SH2 binding enrichment [14] | SH2 binding enrichment [15] | SH2 binding enrichment [16] | Sequence | phosphorylation enrichment [1] | phosphorylation enrichment [2] | phosphorylation enrichment [3] | phosphorylation enrichment [4] | phosphorylation enrichment [5] | phosphorylation enrichment [6] | phosphorylation enrichment [7] | phosphorylation enrichment [8] | phosphorylation enrichment [9] | phosphorylation enrichment [10] | phosphorylation enrichment [11] | phosphorylation enrichment [12] | phosphorylation enrichment [13] |
| --- | --- | --- | --- | --- | --- | --- | --- | --- | --- | --- | --- | --- | --- | --- | --- | --- |
| 0.629 | 0.557 | 0.661 | ADARMYGVLPR [PLP1_Y207_W212R] | 0.477 | 0.385 | 0.378 | 0.467 | 0.536 | 0.398 | 0.598 | 0.405 | 0.44 | 0.481 | 0.467 | 3.23 | 0.727 |
| 0.448 | 0.401 | 0.861 | ADDSYYTARSA [ZAP70_Y493] | 0.603 | 0.518 | 0.484 | 0.706 | 0.623 | 0.597 | 0.932 | 0.634 | 0.754 | 0.542 | 0.773 | 1.12 | 0.7 |
| 0.659 | 0.428 | 0.669 | ADRNHYRRFRR [YBX1_Y145_P149R_YF] | 0.447 | 0.435 | 0.462 | 0.561 | 0.57 | 0.579 | 0.564 | 0.672 | 0.721 | 0.507 | 0.509 | 0.544 | 0.548 |
| 0.483 | 1.25 | 0.819 | AHPIIYDIIEA [PYKtide_D_2014] | 10.7 | 11.9 | 12.7 | 2.13 | 7.74 | 0.949 | 1.41 | 9.44 | 0.794 | 5.89 | 0.699 | 8.25 | 6.44 |
| 0.724 | 0.637 | 0.82 | AKAFIYASHIV [ZNF573_Y229_G224A] | 0.771 | 1.57 | 0.7 | 1.08 | 1 | 0.908 | 0.962 | 0.501 | 0.965 | 1.44 | 0.561 | 0.842 | 1.53 |
